The record followed here is patent US20180009881A1 (VHSQUARED, published 2018).

Like-named read-outs stand apart in the source and are kept apart here.

Experiment [1] addresses T1, recombinant human TNF (human, UniProt P01375 77-233).
T1 construct: also called TNF-alpha; TNFα
Put plainly: Standard TNFR2/TNF interference ELISA: ICVD mixed with human TNF, TNF captured on coated Enbrel (competition). In general terms: ELISA stands for enzyme-linked immunosorbent assay.

In experiment [2] the target is T1, recombinant human TNF. As to the kind of experiment: Standard TNFR2/TNF interference ELISA (competition), against ID32F.
In experiment [3] the target is T2, recombinant soluble human IL-6R (human, UniProt P08887 20-365).
T2 construct: extracellular domain; Printed only as 'soluble'; read as the extracellular domain; also called hIL-6R; sIL-6R
T2 sequence (looked up): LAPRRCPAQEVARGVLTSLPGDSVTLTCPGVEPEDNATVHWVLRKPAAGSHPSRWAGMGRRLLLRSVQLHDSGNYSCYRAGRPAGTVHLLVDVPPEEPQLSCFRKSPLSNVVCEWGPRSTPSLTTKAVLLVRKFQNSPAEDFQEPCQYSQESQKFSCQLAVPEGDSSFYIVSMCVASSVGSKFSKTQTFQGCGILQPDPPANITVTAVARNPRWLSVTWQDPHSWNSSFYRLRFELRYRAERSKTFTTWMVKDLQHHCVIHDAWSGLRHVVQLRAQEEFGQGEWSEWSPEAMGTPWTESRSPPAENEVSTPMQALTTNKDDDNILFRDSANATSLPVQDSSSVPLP
As to the kind of experiment: Standard gp130 ELISA: ICVD mixed with soluble human IL-6R, then IL-6; complex captured on coated gp130 (competition).

In experiment [4] the target is T2, recombinant soluble human IL-6R. Described as above. The source holds these as a separate data set.

T1 sequence (P01375 77-233 limits assumed): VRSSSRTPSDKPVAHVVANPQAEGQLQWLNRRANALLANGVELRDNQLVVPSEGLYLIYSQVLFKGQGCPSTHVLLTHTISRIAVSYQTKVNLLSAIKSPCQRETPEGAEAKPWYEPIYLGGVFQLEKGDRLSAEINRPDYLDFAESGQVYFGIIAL

B1: anti-TNF-alpha ICVD ID8F-EV (VHH)
VHH: EVQLVESGGGLVQPGGSLKLSCAASGFDFSSHWMYWVRQAPGKELEWLSEINTNGLITHYGDSVKGRFTVSRNNAANKMYLELTRLEPEDTALYYCARNQKGLNKGQGTQVTVSS
notes: also called Q65B1 with a K59H substitution; K59H; not shown: C-terminal Flag-His6 tag
As to B1, in the experiment with recombinant human TNF [1], the EC50 – broadly, the concentration giving half of the maximal effect – was 0.139 nM.

B2: anti-TNF-alpha ICVD ID34F (VHH)
VHH: EVQLVESGGGLVQPGGSLKLSCAASGFDFSSHWMYWVRQAPGKELEWLSEINTNGLITHYGDSVKGRFTVSRNNAANKMYLELTRLEPEDTALYYCARNQHGLNKGQGTQVTVSS
notes: also called Q65B1 with K59H and K101H
As to B2, the binding result with recombinant human TNF [2] is “binds”.

B3: anti-TNF-alpha ICVD Q65B1 (VHH)
VHH: EVQLVESGGGLVQPGGSLKLSCAASGFDFSSHWMYWVRQAPGKELEWLSEINTNGLITKYGDSVKGRFTVSRNNAANKMYLELTRLEPEDTALYYCARNQKGLNKGQGTQVTVSS
notes: also called K59; not shown: C-terminal Flag-His6 tag
As to B3, the EC50 in the experiment with recombinant human TNF [1] is 0.0984 nM.

B4: anti-TNF-alpha ICVD ID44F (VHH)
VHH: EVQLVESGGGLVQPGGSLKLSCAASGFDFSSHWMYWVRQAPGKELEWLSEINTNGLITQYGDSVKGRFTVSRNNAANKMYLELTRLEPEDTALYYCARNQKGLNKGQGTQVTVSS
notes: also called Q65B1 with a K59Q substitution; K59Q; not shown: C-terminal Flag-His6 tag
As for B4, the EC50 with recombinant human TNF [1] worked out at 0.245 nM.

B5: anti-TNF-alpha ICVD ID43F (VHH)
VHH: EVQLVESGGGLVQPGGSLKLSCAASGFDFSSHWMYWVRQAPGKELEWLSEINTNGLITAYGDSVKGRFTVSRNNAANKMYLELTRLEPEDTALYYCARNQKGLNKGQGTQVTVSS
notes: also called Q65B1 with a K59A substitution; K59A; not shown: C-terminal Flag-His6 tag
With B5, the concentration for a half-maximal effect (EC50) with recombinant human TNF [1] is 0.603 nM.

B6: anti-IL-6R ICVD 7F6 (VHH)
VHH: EVQLVESGGGLVQAGGSTRLTCLASGSISSINVIGWYRQAPGKQRELVAMIGRGEGANYGDFAKGRFTISRDNSKNTVYLQMNSLKPEDTAVYYCYADYEDRDSPFNGSWGQGTQVTVSS
With B6, the EC50 in experiment [3] stood at 0.15 nM.

B7: anti-IL-6R ICVD ID-3V (VHH)
VHH: EVQLVESGGGLVQAGGSTRLTCLASGSISSINVIGWYRQAPGKQRELVAMIGRGEGANYGDFAKGRFTISRDNSKNTVYLQMNSLKPEDTAVYYCYADYEDHDSPFNGSWGQGTQVTVSS
notes: also called 7F6 with R102H
For B7, in experiment [3], the EC50 turned out to be 0.16 nM.

B8: anti-IL-6R ICVD 5G9 (VHH)
VHH: EVQLVESGGGLVQAGGSTRLTCKASGSIFNINSINVMAWYRQAPGKQRELVAIIGKGGGTNYADFVKGRFTISRDAAKNTVNLQMNSLKPEDTAVYYCYADYEDRDSPFNASWGQGTQVTVSS
In the case of B8, the EC50 in experiment [4] is 0.09 nM.

B9: anti-IL-6R ICVD ID-54V (VHH)
VHH: EVQLVESGGGLVQAGGSTRLTCKASGSIFNINSINVMAWYRQAPGKQRELVAIIGKGGGTNYADFVKGRFTISRDAAKNTVNLQMNSLKPEDTAVYYCYADYEDHDSPFNASWGQGTQVTVSS
notes: also called 5G9 with R105H
With B9, the EC50 in experiment [4] worked out at 0.15 nM.
